Experiment: yeast display, Sf9 membrane polyspecificity reagent, FACS + sequencing; frameworks hold sequencing errors
Outline: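 Galactose-induced (36–48 hours) yeast carrying a synthetic nanobody display library were exposed to 10% biotinylated, detergent-solubilized Sf9 membrane reagent at 4 °C for 1 hour. FACS followed streptavidin microbead enrichment, using low and high (top ~1%) gates for expression (anti-HA) and reagent binding (streptavidin). Colony PCR, MiSeq 2 × 250 sequencing and CDR-length filtering followed. Labels for polyreactivity reflect the gate of origin.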

Row | Sequence | polyreactivity (PSR sort gate)
1 | QVQLGESGGGLVQAGGSLRLTCAASGGTFKGYAMGWYRQAPGKERELVAAISWSGVRTYYADSVKGRFTISRDNAKNTVYLQMNSLKPEDTAVYYCAASWLLRMGYWGQGTQVTVSS | high polyreactivity
2 | QVQLGESGGGLVQAGGSLSLSCAASGITLHNYAMGWYRQAPGKERELVAAISRRGGNTYYADSVKGRFTISRDNAKNTVYLQMNSLIPEDTAVSYCAAYYHGRMDYWGQGTQVTVSS | high polyreactivity
3 | QVQLGESGGGLVQEGGSLRLSCAASGRILSRYAKGWYRQAPGKERELVAAISRSGGSTYYADSVKGRFTISRDNAKNTVYLQMNSLKPEDTAVYYWARDVSLSTGYDYWGQGTQVTVSS | high polyreactivity
4 | QVQLGESVVCLDQAGVSLPLSCAASGFTFKYYTMRWFRQAPGKERELVAAISRRGGSTYYADSVKGRFTISRDNAKNTVYLQMKSLKPEDTAVYYCAADYRYVSTPYGYDYWGQGTQVTVSS | high polyreactivity
5 | QVQLGETRGGLVQAGGSLRLSCAASASIFAPYAMGGYRQAPGKERELVAAITWSGDSTYYADSVKGRFTISRDNAKYTVYLQMNSLKPEDTAVYYCATEEVYGQGNYWGQGTQVTVSS | low polyreactivity
6 | QVQLHESGGGLLQAGGGLRLSCAASGSISSTGFMCWYRQAPGKEREPVAAIAPGTTTYYADSVKGRFTISRDNAKNSVYLQKNSLRPEDTAVYYCAVFTDNRVAFLYWGQGTQVTVSS | low polyreactivity
7 | QVQLHESGGGLVQAGGSLRLSCAASGTISVTYNMGWYRQAPGKEREFVAGNSTGATTNYADSVKGRFTISRDNAKKTVYLQMNSLKPEDTAVYYCAAHIYRQDHFYYWGQGTQVTVSS | low polyreactivity
8 | QVQLHESGGGLVQAGGSLRQSCAASGTISYAGPMGWYRKAPGKEREFVAGIGVGSNTNYADSVKGRYTIIRDNAKNTVYLQMNSLKPEDTAVNYCAVGGYAPLGRPYWGLGTQVTVSS | low polyreactivity
9 | QVQLHESGGGLVQPGGGLRLSCAPSGSISSTGFMGWNRKAPGKEREPVAAIAPGTTTYYADSVKGRFTISRDNAKNTVYLQMNSLRPEDTAVYYCAVFTDNRVAFLYWGQGTQVTVSS | low polyreactivity
10 | QVQLHESGGVQAGGSLRLSCAASGYISRSDVMGWYRQAPGKERELVATINNGTITYYADSVKGRFTISRDNAKNTVYLQMNSLKPEDTAVHYCAVVQSDTDSLYYWGQGTQVTVSS | low polyreactivity
11 | QVQLHESGVGLVQAGGSLRLSCASSGTISYAGPMGWYRQAPGKEREFVAGIGVGSNTNYADSVKGRYTIIRDNAKNTVYLQMNSLKPEDTAVYYCAVGGYAPLGRPYWGQGTQVTVSS | low polyreactivity
12 | QVQLHESVGRLVQEGGGLRVSCAASGSISSTGFMGWSRQAPGKEGEPVAAIAPGTTTYYADSVKGRFTISRDNAKNTVYLQMNCLRPEDTAVYYCAVYTDNRVAFLYWGQGTQVTVSS | low polyreactivity
13 | QVQLIESGGGLVQAGGSLRLSCAASGIIFYDYAMGWYRQAPGKERELVATITSGGSTNYADSVKGRFTISRDNAKNTVYLQMNSLKPEDTAVYYCAAGRGLILGGVYGYDYWGQGTQVTVSS | low polyreactivity
14 | QVQLIESGGGLVQAGGSLRLSCAASGYTFGAYAMGWYRQAPGKERELVAGITFIGGSTYYADSVKGRFTISRDNAKNTVYLQMNSLKPEDTAVYYCAAPIAFGYRGTVAKYGYWGQGTQVTVSS | low polyreactivity
15 | QVQLLDSGGGLVQAGGSLRLSCAASGRTIYYYAMGWYRQAPGKEREFVAAIYWHGGSTYYAESVKGRFTISRDNAKNTVYFQMNSLKPEDTAVYYCAAERYDRVGFDYWGQGTQVTVSS | low polyreactivity
16 | QVQLLESGAGLVQAGGSLRLSCADSGTFYGYAMGWYRQAPGKERELVAAITWSGGSTYYADSVKGRFTISRDNSKNTVYLQMISLKPEDTAVYYCAASLYSGYDSWGQGTQVTVSS | low polyreactivity
17 | QVQLLESGGGIVQAGGSLRLSCAASGRIFVPYAMGWYRQAPGKERELVAAISGRGDSTYYADSVKGRFTISRDNAKNSVYLQMNSLKPEDTAVYYCAKYRPYYTPSYWSRYDYWGQGTQVSVSS | high polyreactivity
18 | QVQLLESGGGIVQAGGSLRLSCAASGSTYVIYDMVWYRQAPGKERELVAVITIIGGSTYYADSVKGRFTISRDNAKNTVYLQMISLKPEDTAVYYCNANVIQDYPNYDYWGQGTLVTVSS | low polyreactivity
19 | QVQLLESGGGLDQAGGSLRLSSAASGRTFGRNAMGWYRQAPGERELVAVISRGGSTYYADSVKGRFTISRDNAKNTVYLQMNSLKPEDTAVYYCNADTVYTRTAPYDYWGQGTQVTVSS | low polyreactivity
20 | QVQLLESGGGLFQAGGSLRLSCAASGLTFYRYAMGWYRKAPGKERELVAAISFSGGSTYYADSVKGRFTISRDNAKNTVYLQMNSLKPEDTAVYYCAASSYPYGYDYWGQGTQVTVSS | high polyreactivity
21 | QVQLLESGGGLVKAGGSLRLSCAASGFTFYRYAMGWYRQAPGKERELVATINYSGGGTYYADSVKGRFTISRDNAKHTVYLQMNSLKPEDTAVYDCAAEDFDYAVLYDYWGQGTQVTVSS | high polyreactivity
22 | QVQLLESGGGLVPAGGSLRLSWAASGSTLYDYTMGWYRQAPGKERELVAAIRVSGARTFYADSVKGRFTISRDNAKNTVYLQRNSLKPEDTAVYYCAARWYIANPLSPSDYWGQGTQVTVSS | low polyreactivity

Row | Sequence | polyreactivity (PSR sort gate)
23 | QVQLLESGGGLVQAGGILRLSCSASGITFSVYDMGCYRQAPGKERELVASISSGGTSTYYADSVKGRFTISRDNAKNTVYFQMNSLKPEDTAVYYGAAYSYFNGDQYSYDYLGQGTQVTVSS | low polyreactivity
24 | QVQLLESGGGLVQAGGSIRLTCAASGRIFYGNTMGWYRQAPGQETELVAAITIGDSTNYADSVKGRFTISRDNAKYTVYLQMNSLKPEDTAVFYCGKRNWWGYYKYDYWGQGSQVTVSS | low polyreactivity
25 | QVQLLESGGGLVQAGGSLRLSCAASGFIFAKNAMGWYRKAPGKERELVAAISASGGRTYYADSVKGRFTISRDNAKNTVYLQMNSLKPEDTAVYYCAARRDGRSGSYNYWGQGTQVTVSS | high polyreactivity
26 | QVQLLESGGGLVQAGGSLRLSCAASGFIFDIYAMGWYRQAPGKERELVASINWSGGDSTSYADSVKGRFTISRDNAKNTVFLQMYSLKPEDTAVYFCNAEYWSYSGGYPDEYDYWGLGTQVTVSS | low polyreactivity
27 | QVQLLESGGGLVQAGGSLRLSCAASGFTFLSNVMGRYRQAPGKERELVAGINFSGDGTYYADSVKGRFTISRDNAKNTVYLQMNSLKPEDTAVYYCAGDVEYYRDVPQQVYVSDDYWGQGTQVTVSS | low polyreactivity
28 | QVQLLESGGGLVQAGGSLRLSCAASGFTFRVNAMGWYIQAPGKERELVAAISSGGSTNYADSVKGRFTISRDNAKNTVYLQMNSLKPEDTAVYYCAKRFKYIYFWGQGTQVTVSS | high polyreactivity
29 | QVQLLESGGGLVQAGGSLRLSCAASGFTITRYAMGWYRQAPGKERELVAAITYRGGSTYYADSVKGRFTISRDNAKITVYLQMNSLKPEDTAVYYCAADALYYFSWYYYWGQGTQVTVSS | high polyreactivity
30 | QVQLLESGGGLVQAGGSLRLSCAASGLTFVRYDMGWDRQAPGKERELVAAISSSGGSTNYADSVKGRFTISRDNAKNTVYLQMNSLKPEDTAVYYCAADYTWRFLRFGYWGQGTQVTVSS | high polyreactivity
31 | QVQLLESGGGLVQAGGSLRLSCAASGNLFHVNAMGWYRQAPGKERELVASISRRGGSTNYADSVKGRFTISRANAKNTVYLQMNSLKPEDTAVYYCATRLTSAVGRYLYDFGYWGQGTQVTVSS | high polyreactivity
32 | QVQLLESGGGLVQAGGSLRLSCAASGRIFASYAMGWYRQAPGKARELVAAISTGGNTYYADSVKGRFTISRDNAKNTVYLQMNSLKPEDTAVYDCAALSGAHEHFVEYDYWGQGTQVTVSS | low polyreactivity
33 | QVQLLESGGGLVQAGGSLRLSCAASGRIFGSNAMGWYRPAPGKERELVAAITRGGSTNYADSVKGRFTISRDNAKNTVYLQMNSLKPEDTAVYYCAVRWYRKYNYWGQGTQVTVSS | high polyreactivity
34 | QVQLLESGGGLVQAGGSLRLSCAASGRIFGYYAMGWYRQAPGKERELVASISWSGGSTYYADSVKGRFSISRDNAKNTVYLQMNSLKPEDTAVYYCAAKRSFLSTIGNYDYWGQGTQVTVSS | high polyreactivity
35 | QVQLLESGGGLVQAGGSLRLSCAASGRIFQFYAMGWYRKAPGKERELVAANSVRGGSTYYAHSVKGRFTISRDNEKNTVYLQMNSLKPEDTAVYYCAASKWGGYYYWGQGTQVTVSS | high polyreactivity
36 | QVQLLESGGGLVQAGGSLRLSCAASGRIFSAYAMGWSRQAPGTERELVAAISWSGGSTYYADSVKGRFTISRDNAKNTVYLQMNSLKPEDTAVYYCAADYFYTSWYQHDYWGQGTQVTVSS | low polyreactivity
37 | QVQLLESGGGLVQAGGSLRLSCAASGRIFVTYAMGWYRQAPGKERELVAAITSRGGRTYYADSVKGRFTISRDNAKNTVYLQMNSLKPEATAVYYCAAYPGPGARYYYWGQGTQVTVSS | high polyreactivity
38 | QVQLLESGGGLVQAGGSLRLSCAASGRIFWNNAMGWYRQAPGKERELVAVISTRGGRTYYADSVKGRFTISRDNANNTVNLQMNSLKPEDTAVYYCAAEFLNKAVGGVTSIYDSWGQGTQVTVSS | low polyreactivity
39 | QVQLLESGGGLVQAGGSLRLSCAASGRTFRHNVMAWYRQAPGNERELVAAISYSRGSTHYADSVKGRFTISRDNAKNTVYFQMNSLKPEANAVYYCNRYSYDAHFLYPFRGHDYWGQGTQVTVTS | low polyreactivity
40 | QVQLLESGGGLVQAGGSLRLSCAASGRTFRINARGWYRQAPGKEREFVAAINYRGGSTYADSVKGRFTISRDNAKNTVYVQMNSLKPEDPAVYYCAAYATLWYYTGVHRGGFENWGQGSQVTVSS | high polyreactivity
41 | QVQLLESGGGLVQAGGSLRLSCAASGRTFTLYTMGWYRQAPGKERELVAAISARGGSTYYADSVKGRFTISRDNAKNTVYLQMNSLKPEDTAVYYCAAESNRLRYYYWGQGTQVTVSS | high polyreactivity
42 | QVQLLESGGGLVQAGGSLRLSCAASGRTLVGYAMGWYRQAPGTERELVAAITGSGGRTYYADSVKGRFTISRDNAKNTVYLQMNSLKPEDTAVYYCNKVYRVSSGAYLYDYWGQGTQVTVSS | high polyreactivity
43 | QVQLLESGGGLVQAGGSLRLSCAASGSIFTGNAMGWYRQAPGKERELVAAISSSGGSTYYADSVKGRFTISRDNAKNNVYLQMNSLKPEDTAVYYCAAYNYFLQYDYWGQGSQVTVSS | low polyreactivity

From the nanobody polyreactivity screen of Harvey et al. (2022)
